Data as given in patent publication US20120288481A1 (BRIGHAM AND WOMEN S HOSPITAL, published 2012).

Biological target: human EphA2 receptor on human cardiac stem cells (hCSCs) (human, UniProt P29317 24-976)
Assay: cell-based or functional assay

Sequence of human EphA2 receptor on human cardiac stem cells (hCSCs) (P29317 24-976 limits assumed): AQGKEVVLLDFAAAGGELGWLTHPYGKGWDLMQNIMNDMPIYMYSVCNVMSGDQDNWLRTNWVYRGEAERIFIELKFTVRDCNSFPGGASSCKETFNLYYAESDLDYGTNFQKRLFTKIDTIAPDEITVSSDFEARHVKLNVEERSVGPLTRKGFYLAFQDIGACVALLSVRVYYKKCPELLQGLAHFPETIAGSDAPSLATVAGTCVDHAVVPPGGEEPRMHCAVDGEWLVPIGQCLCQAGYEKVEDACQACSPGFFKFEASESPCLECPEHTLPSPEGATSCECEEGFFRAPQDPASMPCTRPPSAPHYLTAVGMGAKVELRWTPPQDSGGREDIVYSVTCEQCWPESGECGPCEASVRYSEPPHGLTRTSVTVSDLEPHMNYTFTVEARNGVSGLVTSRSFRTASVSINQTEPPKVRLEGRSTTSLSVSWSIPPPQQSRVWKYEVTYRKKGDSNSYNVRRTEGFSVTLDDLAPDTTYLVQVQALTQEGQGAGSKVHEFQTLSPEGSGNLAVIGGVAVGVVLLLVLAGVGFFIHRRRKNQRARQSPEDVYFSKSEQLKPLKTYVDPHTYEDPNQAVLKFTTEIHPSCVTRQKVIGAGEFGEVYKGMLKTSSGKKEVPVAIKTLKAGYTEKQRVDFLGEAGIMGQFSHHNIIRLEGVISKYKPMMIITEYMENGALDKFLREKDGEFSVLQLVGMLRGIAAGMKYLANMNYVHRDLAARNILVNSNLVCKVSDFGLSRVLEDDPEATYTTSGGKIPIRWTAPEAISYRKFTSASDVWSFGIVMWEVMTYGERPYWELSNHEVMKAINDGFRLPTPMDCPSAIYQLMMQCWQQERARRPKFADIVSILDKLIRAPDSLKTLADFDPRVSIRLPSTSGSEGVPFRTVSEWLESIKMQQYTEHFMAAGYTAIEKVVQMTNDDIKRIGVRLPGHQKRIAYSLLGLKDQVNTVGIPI

- speed of locomotion of hCSCs within the myocardium (two-photon microscopy): 2 fold
B1: human ephrin A1-Fcy chimeric protein (ephrin A1-Fc) (Fc fusion, UniProt P20827 19-182, looked up, not shown: a dimerising Fc or GST)
chain: DRHTVFWNSSNPKFRNEDYTIHVQLNDYVDIICPHYEDHSVADAAMEQYILYLVEHEEYQLCQPQSKDQVRWQCNRPSAKHGPEKLSEKFQRFTPFTLGKEFKEGHSYYYISKPIHQHEDRCLRLKVTVSGKITHSPQAHDNPQEKRLAADDPEVRVLHSIGHS
